The text below walks through data of article PMC2362091, “Expression of V1A and GRP receptors leads to cellular transformation and increased sensitivity to substance-P analogue-induced growth inhibition” (British Journal of Cancer, 2005).

By Kd is commonly meant the free concentration of one partner at which half of the binding sites on the other are occupied at equilibrium, for simple one-to-one binding. Higher therefore signals a looser complex.

In this experiment the target is arginine vasopressin (AVP) (Homo sapiens), P01185. Briefly: competition.
Chain of arginine vasopressin (AVP) (Homo sapiens), P01185 (P01185 whole entry, looked up): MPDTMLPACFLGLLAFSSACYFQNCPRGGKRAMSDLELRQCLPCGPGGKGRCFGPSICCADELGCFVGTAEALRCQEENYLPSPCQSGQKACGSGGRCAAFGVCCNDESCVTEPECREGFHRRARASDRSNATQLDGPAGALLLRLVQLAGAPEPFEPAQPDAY

B1: V1A receptor, P37288 (protein)
chain: MRLSAGPDAGPSGNSSPWWPLATGAGNTSREAEALGEGNGPPRDVRNEELAKLEIAVLAVTFAVAVLGNSSVLLALHRTPRKTSRMHLFIRHLSLADLAVAFFQVLPQMCWDITYRFRGPDWLCRVVKHLQVFGMFASAYMLVVMTADRYIAVCHPLKTLQQPARRSRLMIAAAWVLSFVLSTPQYFVFSMIEVNNVTKARDCWATFIQPWGSRAYVTWMTGGIFVAPVVILGTCYGFICYNIWCNVRGKTASRQSKGAEQAGVAFQKGFLLAPCVSSVKSISRAKIRTVKMTFVIVTAYIVCWAPFFIIQMWSVWDPMSVWTESENPTITITALLGSLNSCCNPWIYMFFSGHLLQDCVQSFPCCQNMKEKFNKEDTDSMSRRQTFYSNNRSPTNSTGMWKDSPKSSKSIKFIPVST
B1: the dissociation constant (Kd) turned out to be 2.98 nM.
